Assay results taken from patent US20050256058A1 (GEORGIA TECH RESEARCH, published 2005).
Numbered stars: 1 amine (or outer) side, 2 acyl side, 3 side chain; on linkers, the order of the positions; unused ones are H or OH. Square brackets hold non-standard residues; d marks the D form. * marks the point of attachment. AAsp = aza-Asp, O=C(N(CC(=O)[*:3])N[*:1])[*:2]; CH═CH‑COOCH2Ph = O=C(/C=C/*)OCc1ccccc1; Cbz = O=C(OCc1ccccc1)*

T1: Caspase-3 (UniProt P42574 29-277)
T1 sequence (looked up): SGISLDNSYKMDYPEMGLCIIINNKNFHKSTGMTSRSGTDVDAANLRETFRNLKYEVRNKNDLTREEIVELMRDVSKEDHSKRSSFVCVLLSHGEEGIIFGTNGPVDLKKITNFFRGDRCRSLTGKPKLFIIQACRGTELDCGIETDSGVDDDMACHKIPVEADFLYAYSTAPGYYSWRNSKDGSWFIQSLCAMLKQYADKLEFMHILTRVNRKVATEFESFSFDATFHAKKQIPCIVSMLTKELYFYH

T2: Caspase-2 (UniProt P42575 170-452, limits assumed)
T2 sequence (looked up): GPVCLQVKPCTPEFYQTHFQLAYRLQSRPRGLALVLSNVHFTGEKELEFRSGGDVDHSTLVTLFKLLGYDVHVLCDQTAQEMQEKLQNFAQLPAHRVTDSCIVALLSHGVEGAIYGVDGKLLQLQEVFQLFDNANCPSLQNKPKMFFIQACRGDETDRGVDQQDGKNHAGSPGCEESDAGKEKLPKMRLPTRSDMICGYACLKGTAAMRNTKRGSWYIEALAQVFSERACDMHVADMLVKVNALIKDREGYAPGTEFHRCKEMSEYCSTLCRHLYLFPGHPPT

T3: Caspase-10 (UniProt Q92851 220-521, limits assumed)
T3 sequence (looked up): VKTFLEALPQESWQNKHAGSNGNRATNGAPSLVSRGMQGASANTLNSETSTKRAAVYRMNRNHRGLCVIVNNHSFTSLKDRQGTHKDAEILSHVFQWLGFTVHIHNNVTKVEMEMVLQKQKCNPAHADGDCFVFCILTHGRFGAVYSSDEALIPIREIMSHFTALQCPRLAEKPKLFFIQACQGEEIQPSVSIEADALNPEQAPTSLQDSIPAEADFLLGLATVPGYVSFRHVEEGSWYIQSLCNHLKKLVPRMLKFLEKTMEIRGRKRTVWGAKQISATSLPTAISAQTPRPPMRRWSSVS

T4: Caspase-7 (UniProt P55210 24-303)
T4 sequence (looked up): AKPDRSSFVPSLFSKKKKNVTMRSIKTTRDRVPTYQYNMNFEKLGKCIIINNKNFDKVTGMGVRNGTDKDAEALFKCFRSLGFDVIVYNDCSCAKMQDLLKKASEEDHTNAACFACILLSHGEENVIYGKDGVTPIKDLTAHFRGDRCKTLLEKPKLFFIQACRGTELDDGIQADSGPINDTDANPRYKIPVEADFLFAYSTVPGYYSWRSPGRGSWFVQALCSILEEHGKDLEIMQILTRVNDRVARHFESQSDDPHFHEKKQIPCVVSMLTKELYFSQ

T5: Caspase-9 (UniProt P55211 1-416, limits assumed)
T5 sequence (looked up): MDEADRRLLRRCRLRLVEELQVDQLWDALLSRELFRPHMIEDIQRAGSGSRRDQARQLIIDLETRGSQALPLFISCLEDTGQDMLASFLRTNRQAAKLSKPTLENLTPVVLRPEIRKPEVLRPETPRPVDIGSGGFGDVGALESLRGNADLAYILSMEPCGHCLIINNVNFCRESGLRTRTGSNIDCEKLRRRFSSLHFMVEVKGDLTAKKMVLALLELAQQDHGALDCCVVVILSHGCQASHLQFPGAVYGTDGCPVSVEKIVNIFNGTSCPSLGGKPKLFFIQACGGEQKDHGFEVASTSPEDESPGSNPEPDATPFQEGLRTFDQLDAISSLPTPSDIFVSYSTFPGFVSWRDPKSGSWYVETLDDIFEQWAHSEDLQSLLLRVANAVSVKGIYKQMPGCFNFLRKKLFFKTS

T6: Caspase-6 (UniProt P55212 24-293, limits assumed)
T6 sequence (looked up): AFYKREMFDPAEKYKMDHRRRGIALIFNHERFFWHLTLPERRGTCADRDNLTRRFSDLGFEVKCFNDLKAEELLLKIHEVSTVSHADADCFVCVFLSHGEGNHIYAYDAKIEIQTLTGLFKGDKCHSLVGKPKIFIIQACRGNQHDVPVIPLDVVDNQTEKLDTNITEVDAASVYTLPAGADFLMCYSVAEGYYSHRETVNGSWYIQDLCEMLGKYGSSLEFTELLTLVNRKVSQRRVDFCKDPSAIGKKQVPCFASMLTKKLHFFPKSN

B1: Cbz-Leu-Glu-Thr-AAsp-CH═CH-COOCH2Ph (peptide)
peptide: Cbz-LET[AAsp]-{CH═CH‑COOCH2Ph}
SMILES: CC(C)C[C@H](NC(=O)OCc1ccccc1)C(=O)N[C@@H](CCC(=O)O)C(=O)N[C@H](C(=O)NN(CC(=O)O)C(=O)/C=C/C(=O)OCc1ccccc1)[C@@H](C)O

What follows are binders tested against T1, Caspase-3 (assay: cell-based or functional assay).

Binder | k2 [M⁻¹ s⁻¹]
B1 | 4600
Cbz-LET[AAsp]-{CH═CH‑CONHPh} [Cbz-Leu-Glu-Thr-AAsp-CH═CH-CONHPh] | 4700
Cbz-LET[AAsp]-{CH═CH‑CONHCH2Ph} [Cbz-Leu-Glu-Thr-AAsp-CH═CH-CONHCH2Ph] | 1120
Cbz-LET[AAsp]-{CH═CH‑CONHCH2‑4‑F‑Ph} [Cbz-Leu-Glu-Thr-AAsp-CH═CH-CONHCH2-4-F-Ph] | 4490
Cbz-LET[AAsp]-{CH═CH‑CONHCH2CH2Ph} [Cbz-Leu-Glu-Thr-AAsp-CH═CH-CONHCH2CH2Ph] | 5400

The binders below were run against T2, Caspase-2 (assay: cell-based or functional assay).

Binder | k2 [M⁻¹ s⁻¹]
B1 | 480
Cbz-LET[AAsp]-{CH═CH‑CONHPh} [Cbz-Leu-Glu-Thr-AAsp-CH═CH-CONHPh] | 290
Cbz-LET[AAsp]-{CH═CH‑CONHCH2Ph} [Cbz-Leu-Glu-Thr-AAsp-CH═CH-CONHCH2Ph] | 66
Cbz-LET[AAsp]-{CH═CH‑CONHCH2‑4‑F‑Ph} [Cbz-Leu-Glu-Thr-AAsp-CH═CH-CONHCH2-4-F-Ph] | 70
Cbz-LET[AAsp]-{CH═CH‑CONHCH2CH2Ph} [Cbz-Leu-Glu-Thr-AAsp-CH═CH-CONHCH2CH2Ph] | 110

These binders were tested against T3, Caspase-10 (assay: cell-based or functional assay).

Binder | k2 [M⁻¹ s⁻¹]
B1 | 18900
Cbz-LET[AAsp]-{CH═CH‑CONHPh} [Cbz-Leu-Glu-Thr-AAsp-CH═CH-CONHPh] | 6050
Cbz-LET[AAsp]-{CH═CH‑CONHCH2Ph} [Cbz-Leu-Glu-Thr-AAsp-CH═CH-CONHCH2Ph] | 14400
Cbz-LET[AAsp]-{CH═CH‑CONHCH2‑4‑F‑Ph} [Cbz-Leu-Glu-Thr-AAsp-CH═CH-CONHCH2-4-F-Ph] | 9380
Cbz-LET[AAsp]-{CH═CH‑CONHCH2CH2Ph} [Cbz-Leu-Glu-Thr-AAsp-CH═CH-CONHCH2CH2Ph] | 17900

Each binder was assayed against T4, Caspase-7 (assay: cell-based or functional assay).

Binder | k2 [M⁻¹ s⁻¹]
B1 | 1570
Cbz-LET[AAsp]-{CH═CH‑CONHPh} [Cbz-Leu-Glu-Thr-AAsp-CH═CH-CONHPh] | 730
Cbz-LET[AAsp]-{CH═CH‑CONHCH2Ph} [Cbz-Leu-Glu-Thr-AAsp-CH═CH-CONHCH2Ph] | 340
Cbz-LET[AAsp]-{CH═CH‑CONHCH2‑4‑F‑Ph} [Cbz-Leu-Glu-Thr-AAsp-CH═CH-CONHCH2-4-F-Ph] | 410
Cbz-LET[AAsp]-{CH═CH‑CONHCH2CH2Ph} [Cbz-Leu-Glu-Thr-AAsp-CH═CH-CONHCH2CH2Ph] | 440

What follows are binders tested against Caspase-8 (UniProt Q14790 217-479) (assay: cell-based or functional assay).
Chain of Caspase-8 (Q14790 217-479 limits assumed): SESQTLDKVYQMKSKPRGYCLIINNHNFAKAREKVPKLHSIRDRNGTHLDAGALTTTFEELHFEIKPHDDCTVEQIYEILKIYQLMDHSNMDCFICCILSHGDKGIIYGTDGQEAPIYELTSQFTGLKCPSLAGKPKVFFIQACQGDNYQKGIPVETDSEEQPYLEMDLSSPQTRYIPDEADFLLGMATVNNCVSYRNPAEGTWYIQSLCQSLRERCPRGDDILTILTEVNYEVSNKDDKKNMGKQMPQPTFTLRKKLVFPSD

Binder | k2 [M⁻¹ s⁻¹]
B1 | 98400
Cbz-LET[AAsp]-{CH═CH‑CONHPh} [Cbz-Leu-Glu-Thr-AAsp-CH═CH-CONHPh] | 176000
Cbz-LET[AAsp]-{CH═CH‑CONHCH2Ph} [Cbz-Leu-Glu-Thr-AAsp-CH═CH-CONHCH2Ph] | 70200
Cbz-LET[AAsp]-{CH═CH‑CONHCH2‑4‑F‑Ph} [Cbz-Leu-Glu-Thr-AAsp-CH═CH-CONHCH2-4-F-Ph] | 171000
Cbz-LET[AAsp]-{CH═CH‑CONHCH2CH2Ph} [Cbz-Leu-Glu-Thr-AAsp-CH═CH-CONHCH2CH2Ph] | 121000

These binders were tested against T5, Caspase-9 (assay: cell-based or functional assay).

Binder | k2 [M⁻¹ s⁻¹]
Cbz-LET[AAsp]-{CH═CH‑CONHPh} [Cbz-Leu-Glu-Thr-AAsp-CH═CH-CONHPh] | 1190
Cbz-LET[AAsp]-{CH═CH‑CONHCH2Ph} [Cbz-Leu-Glu-Thr-AAsp-CH═CH-CONHCH2Ph] | 1400
Cbz-LET[AAsp]-{CH═CH‑CONHCH2‑4‑F‑Ph} [Cbz-Leu-Glu-Thr-AAsp-CH═CH-CONHCH2-4-F-Ph] | 1700
Cbz-LET[AAsp]-{CH═CH‑CONHCH2CH2Ph} [Cbz-Leu-Glu-Thr-AAsp-CH═CH-CONHCH2CH2Ph] | 1760

Each binder was assayed against T6, Caspase-6 (assay: cell-based or functional assay).

Binder | k2 [M⁻¹ s⁻¹]
B1 | 47600
Cbz-LET[AAsp]-{CH═CH‑CONHPh} [Cbz-Leu-Glu-Thr-AAsp-CH═CH-CONHPh] | 11400
Cbz-LET[AAsp]-{CH═CH‑CONHCH2Ph} [Cbz-Leu-Glu-Thr-AAsp-CH═CH-CONHCH2Ph] | 1550
Cbz-LET[AAsp]-{CH═CH‑CONHCH2‑4‑F‑Ph} [Cbz-Leu-Glu-Thr-AAsp-CH═CH-CONHCH2-4-F-Ph] | 3100
Cbz-LET[AAsp]-{CH═CH‑CONHCH2CH2Ph} [Cbz-Leu-Glu-Thr-AAsp-CH═CH-CONHCH2CH2Ph] | 2150
